Laboratory results as given in US20080242590A1, “New Method 706” (ASTRAZENECA AB, priority 2007, published 2008).

Key:
[1] = system: mouse Aβ40; experiment: Mouse Aβ40 in plasma, time and dose response 1.5 and 3 hours (Example 24); format: in vivo, C57BL/6 mice
Description: The objective with this study was to evaluate the time and dose-response effect of hFc-Nep in plasma of female C57BL/6 mice after an acute treatment. The specific purpose is to find an effect on plasma Aβ40 and to correlate effect to exposure level of hFc-Nep in plasma. The γ-secretase inhibitor M-550426 is included as a positive control.
13 weeks old female C57BL/6 mice (10 mice/group) received vehicle or hFc-Nep at 1 or 5 mg/kg as a single intravenous injection. M-550426 was administrated per orally at 300 μmol/kg 3 hours before termination. A blank group was also included in the study.
Blood was sampled from vehicle- and compound-treated animals at 1.5 and 3 hours after dose. Blood was withdrawn from anaesthetized mice by heart puncture into pre-chilled microtainer tubes containing EDTA. Blood samples were immediately put on ice prior to centrifugation. Plasma was prepared by centrifugation for 10 minutes at approximately 3000×g at +4° C. within 20 minutes from sampling. After blood sampling, mice were terminated. […] Mouse Aβ40 levels in plasma were analysed by commercial ELISA kit obtained from Biosource. The concentrations of Fc-Nep in plasma and in the formulations were assayed according to the procedures described in Example 27.

[2] = system: fluorogenic peptide substrate V—Mca-Arg-Pro-Gly-Phe-Ser-Ala-Phe-Lys(Dnp)-OH; experiment: Neprilysin enzyme activity FRET assay, purified protein; format: biochemical; settings: purified fusion protein
Description: The Neprilysin enzymatic activity was determined in a fluorescence resonance energy transfer (FRET) assay. Recombinant Human Neprilysin (R&D Systems), culture medium from Neprilysin or Fc-Neprilysin producing cells (AZ Sodertalje) or purified Neprilysin or Fc-Neprilysin was added into 96-well plate containing 10 μM of fluorogenic peptide substrate V—Mca-Arg-Pro-Gly-Phe-Ser-Ala-Phe-Lys(Dnp)-OH (R&D Systems). The final concentration of the control recombinant human Neprilysin was 0.1 or 0.25 μg/ml. 10 μM of Neprilysin inhibitor phosphoramidone (BIOMOL) was added into some wells in order to control the specificity of the signal in the assay and verify the specific Neprilysin activity. Following addition of all components to wells, plate was immediately placed into a fluorescent plate reader (Ascent) and signal was recorded for every minute for 20 minutes at the excitation 340 nm and emission 405 nm. The activity of enzyme was evaluated by calculating the velocity of reaction−Slope coefficient=ΣΔRFU/Δt. In order to compare the specific activity of the commercial recombinant Neprilysin and Fc-Neprilysin fusion protein, we introduced the specific activity coefficient, which is calculated according to this formula: Specific activity=slope coefficient/pmol of Neprilysin or monomer of Fc-Neprilysin in assay. […]

B1: Fc-Neprilysin: extracellular domain of human Neprilysin fused to the human IgG2 Fc domain (including hinge), Fc at N-terminus; SEQ ID NO 11 (protein)
chain: ERKCCVECPPCPAPPVAGPSVFLFPPKPKDTLMISRTPEVTCVVVDVSHEDPEVQFNWYVDGVEVHNAKTKPREEQFNSTFRVVSVLTVVHQDWLNGKEYKCKVSNKGLPAPIEKTISKTKGQPREPQVYTLPPSREEMTKNQVSLTCLVKGFYPSDIAVEWESNGQPENNYKTTPPMLDSDGSFFLYSKLTVDKSRWQQGNVFSCSVMHEALHNHYTQKSLSLSPGKYDDGICKSSDCIKSAARLIQNMDATTEPCTDFFKYACGGWLKRNVIPETSSRYGNFDILRDELEVVLKDVLQEPKTEDIVAVQKAKALYRSCINESAIDSRGGEPLLKLLPDIYGWPVATENWEQKYGASWTAEKAIAQLNSKYGKKVLINLFVGTDDKNSVNHVIHIDQPRLGLPSRDYYECTGIYKEACTAYVDFMISVARLIRQEERLPIDENQLALEMNKVMELEKEIANATAKPEDRNDPMLLYNKMTLAQIQNNFSLEINGKPFSWLNFTNEIMSTVNISITNEEDVVVYAPEYLTKLKPILTKYSARDLQNLMSWRFIMDLVSSLSRTYKESRNAFRKALYGTTSETATWRRCANYVNGNMENAVGRLYVEAAFAGESKHVVEDLIAQIREVFIQTLDDLTWMDAETKKRAEEKALAIKERIGYPDDIVSNDNKLNNEYLELNYKEDEYFENIIQNLKFSQSKQLKKLREKVDKDEWISGAAVVNAFYSSGRNQIVFPAGILQPPFFSAQQSNSLNYGGIGMVIGHEITHGFDDNGRNFNKDGDLVDWWTQQSASNFKEQSQCMVYQYGNFSWDLAGGQHLNGINTLGENIADNGGLGQAYRAYQNYIKKNGEEKLLPGLDLNHKQLFFLNFAQVWCGTYRPEYAVNSIKTDVHSPGNFRIIGTLQNSAEFSEAFHCRKNSYMNPEKKCRVW
Reduction of mouse Aβ40 in plasma compared to vehicle ([1]; 1 mg/kg i.v., 1.5 hours, p=0.1638): 17% | Reduction of mouse Aβ40 in plasma compared to vehicle ([1]; 1 mg/kg i.v., 3 hours, p<0.005): 36% | Reduction of mouse Aβ40 in plasma compared to vehicle ([1]; 5 mg/kg i.v., 1.5 hours, p<0.0001): 76% | Reduction of mouse Aβ40 in plasma compared to vehicle ([1]; 5 mg/kg i.v., 3 hours, p<0.0001): 72% | Specific activity (slope coefficient/pmol) [2]: 14.1
